This is an account of results in patent US6306613, “Modulators of leaderless protein export and methods for identifying and using the same” (Ciblex Corporation, dated 2001).

The target in assay [1] is T1, rat Na+/K+ ATPase α1 subunit (rat, UniProt P06685). In words: co-immunoprecipitation from co-transfected COS cells (FIGS. 7-9).
The target of assay [2] is T1, rat Na+/K+ ATPase α1 subunit. In words: co-immunoprecipitation from co-transfected COS cells with anti-Na+/K+ ATPase α1 or anti-hCG antibody (FIG. 6).

B1: neomycin phosphotransferase (NPT) (enzyme)
chain: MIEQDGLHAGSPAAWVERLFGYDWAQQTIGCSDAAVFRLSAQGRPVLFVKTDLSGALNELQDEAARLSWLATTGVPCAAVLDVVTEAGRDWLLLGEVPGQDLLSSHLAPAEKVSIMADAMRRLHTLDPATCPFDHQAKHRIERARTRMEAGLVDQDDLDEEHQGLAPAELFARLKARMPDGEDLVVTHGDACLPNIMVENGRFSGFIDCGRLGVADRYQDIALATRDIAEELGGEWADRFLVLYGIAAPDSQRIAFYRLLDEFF
Take B1: in assay [1], the binding result is given as “no binding”.

B2: human chorionic gonadotropin α (hCG-α) (ligand)
chain: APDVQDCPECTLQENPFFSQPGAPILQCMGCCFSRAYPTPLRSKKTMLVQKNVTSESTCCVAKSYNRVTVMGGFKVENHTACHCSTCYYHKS
For B2, the binding result in assay [2] is “no binding”.
